To fix the notation:
B1: probe 6 (dsDNA)
DNA 1: AGTCGCCATACGCTGTACGGTACCAGCGCCCGCGGCACTGCGG
DNA 2: CCGCAGTGCCGCGGGCGCTGGTACCGTACAGCGTATGGCGACT
B2: probe 2 (dsDNA)
DNA 1: CCCAGGTCTGCCGATTGAGTTTCCATACGTCGTATGGTACTAC
DNA 2: GTAGTACCATACGACGTATGGAAACTCAATCGGCAGACCTGGG

For one series, the target named is T1, His6-SAV577 (UniProt Q82QD3 1-265).
T1 sequence: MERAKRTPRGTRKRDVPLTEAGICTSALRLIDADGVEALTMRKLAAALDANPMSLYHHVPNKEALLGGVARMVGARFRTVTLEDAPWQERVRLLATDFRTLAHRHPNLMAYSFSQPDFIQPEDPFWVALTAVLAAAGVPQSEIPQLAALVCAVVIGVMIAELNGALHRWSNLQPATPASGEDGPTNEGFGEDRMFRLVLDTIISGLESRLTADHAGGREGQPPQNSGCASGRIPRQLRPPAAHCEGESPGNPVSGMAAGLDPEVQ
Briefly: EMSA; 0.3 nM probe; EMSA: Roche DIG Gel Shift kit binding buffer, 1 ug poly[d(I-C)] per 20 ul, 25 C 30 min, 5% native PAGE 0.5x TBE; footprinting: 20 mM HEPES pH 7.6, 10 mM (NH4)2SO4, 1 mM DTT, 0.2% Tween-20, 30 mM KCl, 25 C binding. The following applies: protein: recombinant; tags: N-terminal His6; chain copies: 2; label: DIG 3'-end; blunt. (In general: Mobility shift assays separate free from complexed probe on a gel.)
For B1, the binding result is “binds”.

As for B2, the binding result is “binds”.

In the next series the target is T2, His6-SAV577 (Streptomyces avermitilis ATCC31267?) (UniProt Q82QD3).
T2 sequence: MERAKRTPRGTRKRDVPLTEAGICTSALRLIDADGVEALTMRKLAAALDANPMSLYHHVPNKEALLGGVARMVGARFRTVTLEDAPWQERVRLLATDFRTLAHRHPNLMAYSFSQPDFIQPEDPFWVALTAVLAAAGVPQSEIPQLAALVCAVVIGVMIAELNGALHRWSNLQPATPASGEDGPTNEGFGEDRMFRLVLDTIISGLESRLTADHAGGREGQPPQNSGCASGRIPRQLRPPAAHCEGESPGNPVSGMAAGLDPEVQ
Briefly: EMSA. The following applies: EMSA: Roche DIG Gel Shift kit binding buffer, 1 ug poly[d(I-C)] per 20 ul, 25 C 30 min, 5% native PAGE 0.5x TBE; footprinting: 20 mM HEPES pH 7.6, 10 mM ….
For “ATATGCCCTGCCGAGGAGACCCTGGCGAACCCGCCTTGCCCGCTCTCGCGGACTGATACCGGCCTGATCGAGCGCGGCATGGAGACGTACGGGCGCCGCCGCGAGGCGGCACACGCGCCTGCTTCTCCGGCGCTGCCGTCAGTCGCCGACGCGCATGGGTGCAGACCCGACCTCCGCGATGCGTACTGGCGGGCAGGGGGATTGGCTGCTCACCGGGATGTAGCCGCGGCCGCCGTCGCGGATCGTGGGTGTCCTCC (double strand) [probe 4]”, the binding entry is reported as “no binding”.

Regarding “GAAACTCAATCGGCAGACCTGGGGTCGAGAAACAGGAACGTTTCGGCCCATCAGGGACGGCGTCGCTCACGCAGCGGGGTCGCATCAGGATCAGGCGCTGCCGAACGCTCTCCCGGCTGGAGGAGGCGAGGGGAGACCGGTCGCCGCCAGCCGGCGGCTCGACCGGGCCACCGGTGGGTGCGCCCCGGGGAGGACACCCACGATCCGCGACGGCGGCCGCGGCTACATCCCGGTGAGCAGCCAATCCCCCTGCCCGCCAGTACGCATCGCGGAGGT (double strand) [probe 3]”, the binding result is “no binding”.

For the molecule “GAAGGCATACAGCGTATGGAAACGGGGCGCTGCCGTACCGGCGCCCCGTCACACCGAATGGCGCCCTGCCCGCCTTTCCCCTTGGAGGAGCCAGCCAT (double strand) [probe 1]”, the binding entry is “binds more weakly”.

As to “GCTCTCGGAATTGTTCGTTCCCTCGCACTACACGTTCGAGATCGGAACGTGAAGACCAGCACGCTCCAGCCCGTTCGGATGCCGTACGTAGTCCGCCATGGCCAAGGGAATGAGCCCCACTCAGGCAGCGCCCTCGTACTCGTCCACGACCAGATGCTTGGACAGCAGCGCCTGAACCGCGTCCGGCGGAAAGTATCAGTGGACGAACG (double strand) [probe 577p]”, the binding entry is on record as “no binding”.

With “GGTATTCCATTCGGTGTTGCAGCACGCGACCCACTGCGCATCCCACTCGTGAATTGTGGACCGCCATCCGGGGCACGGATGTCTCCAGGAAGGAACTCCTTCACCCTCGCGAACACCACCTCAGAATCCCACGATCATCAGTTAATCATCAAAGTCAGCGACCTTGACACTACCCCGCCCACCAGGGCAAATTCATAACA (double strand) [probe 7]”, the binding result is given as “no binding”.

The record behind these values is paper PMC4051647, “Two Adjacent and Similar TetR Family Transcriptional Regulator Genes, SAV577 and SAV576, Co-Regulate Avermectin Production in Streptomyces avermitilis”.
